Patent publication US20060286609A1 (BIOCHECK, published 2006)
Residue numbers refer to the chain shown, from its start.

Tests used:
Mouse Id1: Histidine [1] = molecular target: T1, Mouse Id1: Histidine (mouse, UniProt P20067-2 1-148); test: ELISA, coated antigen, Ab 0.025 ug/ml
T1 construct: E. coli fusion protein (vector pGW07); also called m-Id1-His; not shown: His-tag
T1 sequence: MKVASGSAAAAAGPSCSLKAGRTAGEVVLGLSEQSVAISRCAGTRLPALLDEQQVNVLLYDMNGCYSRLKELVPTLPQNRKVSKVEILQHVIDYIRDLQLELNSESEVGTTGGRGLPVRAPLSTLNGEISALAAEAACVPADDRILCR

Mouse Id2: Histidine [2] = molecular target: T2, Mouse Id2: Histidine (mouse, UniProt P41136 1-134, limits assumed); test: ELISA, coated antigen, Ab 0.025 ug/ml
T2 construct: E. coli fusion protein (vector pGW07); also called m-Id2: His; not shown: His-tag
T2 sequence (looked up): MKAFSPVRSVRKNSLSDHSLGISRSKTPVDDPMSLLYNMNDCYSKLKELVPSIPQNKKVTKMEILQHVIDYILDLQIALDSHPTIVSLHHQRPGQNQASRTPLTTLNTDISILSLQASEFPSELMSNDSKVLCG

Human Id2: Histidine [3] = molecular target: T3, Human Id2: Histidine (human, UniProt Q02363 1-134, limits assumed); test: ELISA, coated antigen, Ab 0.025 ug/ml
T3 construct: E. coli fusion protein (vector pGW07); also called h-Id2: His; not shown: His-tag
T3 sequence (looked up): T2 sequence (looked up) with T60S, V131A

Human Id3: Histidine [4] = molecular target: T4, Human Id3: Histidine (human, UniProt Q02535 1-119, limits assumed); test: ELISA, coated antigen, Ab 0.025 ug/ml
T4 construct: E. coli fusion protein (vector pGW07); also called h-Id3: His; not shown: His-tag
T4 sequence (looked up): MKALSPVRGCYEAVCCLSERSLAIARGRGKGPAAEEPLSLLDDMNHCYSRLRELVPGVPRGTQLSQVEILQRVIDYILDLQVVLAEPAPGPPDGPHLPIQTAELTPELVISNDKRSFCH

Mouse Id4: Histidine [5] = molecular target: T5, Mouse Id4: Histidine (mouse, UniProt P41139 1-161, limits assumed); test: ELISA, coated antigen, Ab 0.050 ug/ml
T5 construct: E. coli fusion protein (vector pGW07); also called m-Id4: His; not shown: His-tag
T5 sequence (looked up): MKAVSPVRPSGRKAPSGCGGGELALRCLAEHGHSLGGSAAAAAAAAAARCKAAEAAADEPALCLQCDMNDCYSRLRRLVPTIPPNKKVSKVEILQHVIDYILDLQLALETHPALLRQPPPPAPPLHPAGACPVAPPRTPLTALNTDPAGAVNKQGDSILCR

Human Id4: Histidine [6] = molecular target: T6, Human Id4: Histidine (human, UniProt P47928 1-161, limits assumed); test: ELISA, coated antigen, Ab 0.050 ug/ml
T6 construct: E. coli fusion protein (vector pGW07); also called h-Id4: His; not shown: His-tag
T6 sequence (looked up): T5 sequence (looked up) with L125H, A130T, V133A

Mouse Id1: Histidine [7] = molecular target: T1, Mouse Id1: Histidine; test: ELISA, coated antigen, Ab 0.050 ug/ml
Mouse Id2: Histidine [8] = molecular target: T2, Mouse Id2: Histidine; test: ELISA, coated antigen, Ab 0.050 ug/ml
Human Id2: Histidine [9] = molecular target: T3, Human Id2: Histidine; test: ELISA, coated antigen, Ab 0.050 ug/ml
Mouse Id3: Histidine [10] = molecular target: T7, Mouse Id3: Histidine (mouse, UniProt P41133 1-119, limits assumed); test: ELISA, coated antigen, Ab 0.050 ug/ml
T7 construct: E. coli fusion protein (vector pGW07); also called m-Id3: His; not shown: His-tag
T7 sequence (looked up): T4 sequence (looked up) with G31S, A33S, A34T, N112K

Human Id3: Histidine [11] = molecular target: T4, Human Id3: Histidine; test: ELISA, coated antigen, Ab 0.050 ug/ml
Mouse Id4: Histidine [12] = molecular target: T5, Mouse Id4: Histidine; test: ELISA, coated antigen, Ab 0.100 ug/ml
Human Id4: Histidine [13] = molecular target: T6, Human Id4: Histidine; test: ELISA, coated antigen, Ab 0.100 ug/ml
Mouse Id1: Histidine [14] = molecular target: T1, Mouse Id1: Histidine; test: ELISA, coated antigen, Ab 0.100 ug/ml
Mouse Id2: Histidine [15] = molecular target: T2, Mouse Id2: Histidine; test: ELISA, coated antigen, Ab 0.100 ug/ml
Human Id2: Histidine [16] = molecular target: T3, Human Id2: Histidine; test: ELISA, coated antigen, Ab 0.100 ug/ml
Mouse Id3: Histidine [17] = molecular target: T7, Mouse Id3: Histidine; test: ELISA, coated antigen, Ab 0.100 ug/ml
Human Id3: Histidine [18] = molecular target: T4, Human Id3: Histidine; test: ELISA, coated antigen, Ab 0.100 ug/ml
Mouse Id4: Histidine [19] = molecular target: T5, Mouse Id4: Histidine; test: ELISA, coated antigen, Ab 0.010 ug/ml
Human Id4: Histidine [20] = molecular target: T6, Human Id4: Histidine; test: ELISA, coated antigen, Ab 0.010 ug/ml
Human Id2: Histidine [21] = molecular target: T3, Human Id2: Histidine; test: ELISA, coated antigen, Ab 0.010 ug/ml
Mouse Id3: Histidine [22] = molecular target: T7, Mouse Id3: Histidine; test: ELISA, coated antigen, Ab 0.010 ug/ml
Human Id3: Histidine [23] = molecular target: T4, Human Id3: Histidine; test: ELISA, coated antigen, Ab 0.010 ug/ml

Substance	A450 (Mouse Id1: Histidine [1]) [A450]	A450 (Mouse Id2: Histidine [2]) [A450]	A450 (Human Id2: Histidine [3]) [A450]	A450 (Human Id3: Histidine [4]) [A450]	A450 (Mouse Id4: Histidine [5]) [A450]	A450 (Human Id4: Histidine [6]) [A450]	A450 (Mouse Id1: Histidine [7]) [A450]	A450 (Mouse Id2: Histidine [8]) [A450]	A450 (Human Id2: Histidine [9]) [A450]	A450 (Mouse Id3: Histidine [10]) [A450]	A450 (Human Id3: Histidine [11]) [A450]	A450 (Mouse Id4: Histidine [12]) [A450]	A450 (Human Id4: Histidine [13]) [A450]	A450 (Mouse Id1: Histidine [14]) [A450]	A450 (Mouse Id2: Histidine [15]) [A450]	A450 (Human Id2: Histidine [16]) [A450]	A450 (Mouse Id3: Histidine [17]) [A450]	A450 (Human Id3: Histidine [18]) [A450]	A450 (Mouse Id4: Histidine [19]) [A450]	A450 (Human Id4: Histidine [20]) [A450]	also measured
rabbit monoclonal anti-human Id1, clone #BCH-2/#5-3 (antibody)	0.053	0.048	0.049	0.046	0.048	0.052	0.057	0.05	0.048	0.052	0.046	0.049	0.047	0.068	0.049	0.054	0.05	0.046	0.043	0.045	A450 (Human Id2: Histidine [21]): 0.046 A450; A450 (Mouse Id3: Histidine [22]): 0.048 A450; A450 (Human Id3: Histidine [23]): 0.044 A450
rabbit monoclonal anti-mouse/human Id1, clone #BCH-1/#195-14 (antibody)	0.876	0.049	0.05	0.047	0.049	0.049	1.39	0.054	0.048	0.05	0.047	0.049	0.049	2.04	0.054	0.053	0.05	0.047	0.045	0.046	A450 (Human Id2: Histidine [21]): 0.054 A450; A450 (Mouse Id3: Histidine [22]): 0.047 A450; A450 (Human Id3: Histidine [23]): 0.048 A450
